Values quoted from earlier work as cited in publication PMC3144249.

Columns and labels:
[1] = molecular target: arrestin-1 (Mus musculus) (UniProt P20443)
[2] = molecular target: arrestin-1 dimer (Mus musculus) (UniProt P20443)

| Kd [1] [µM] | Kd [2] [µM] | Substance |
| --- | --- | --- |
| 57.5 | – | arrestin-1 (from UniProt P20443) |
| – | 63.1 | arrestin-1 dimer (from UniProt P20443) |
